These results are taken from paper PMC3622925.

The target of this assay is Trichomonas vaginalis virus 1 strain UH9 coat protein (Trichomonas vaginalis virus 1 (TVV1), strain UH9). Briefly: cryo-EM structure.

With “Trichomonas vaginalis virus 1 strain UH9 coat protein (natural protein)”, the stoichiometry N (subunits per capsid) worked out at 120.
